{"source": "patent US20250101122A1", "about": "(KELONIA THERAPEUTICS, published 2025)"}
{"target": "T1, recombinant, phycoerythrin (PE) labeled, BCMA extracellular domain-FC fusion protein (BCMA-PE) (Homo sapiens (Human), UniProt Q02223 1-54, phycoerythrin (PE) label, site not stated)", "T1 construct": "Staining reagent; not shown: Fc part", "T1 sequence": "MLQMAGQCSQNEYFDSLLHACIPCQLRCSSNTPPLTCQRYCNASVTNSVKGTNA", "test": "flow cytometry; transduced PBMCs stained with PE-labelled BCMA extracellular domain-Fc (BCMA-PE)", "method": "5×10⁵ human PBMCs were plated in each well of a 24-well plate. Cells were transduced with recombinant lentiviruses LV 1 to LV 19 at a MOI 2 based on the Jurkat functional titer, or a 0.5 mL volumetric transduction if MOI 2 was not achievable. Seven days post-transduction, PBMCs were harvested and stained with BCMA-PE and analyzed by flow cytometry to assess the percentage of anti-BCMA CAR expressing cells. FIG. 2B."}
{"binder": "anti-BCMA CAR of recombinant lentivirus LV 1 (SEQ ID NO: 189) (other, Chimeric antigen receptor on the surface of transduced cells; CD8α hinge and TM, CD137 costimulatory domain, CD3ζ) EIVLTQSPATLSLSPGERATLSCRASQSVSSYLAWYQQKPGQAPRLLIYDASNRATGIPARFSGSGSGTDFTLTISSLEPEDFAVYYCQQRVVYPITFGGGTKVEIKGGGGSGGGGSGGGGSGGGGSQITLKESGPTLVKPTQTLTLTCTFSGFSLSTSGVGVGWIRQPPGKALEWLALIYWNDEKRYSPSLKSRLTITKDTSKNQVVLTMTNMDPVDTAVYYCARDEYGGFDIWGQGTMVTVSSTTTPAPRPPTPAPTIASQPLSLRPEACRPAAGGAVHTRGLDFACDIYIWAPLAGTCGVLLLSLVITLYCKRGRKKLLYIFKQPFMRPVQTTQEEDGCSCRFPEEEEGGCELRVKFSRSADAPAYQQGQNQLYNELNLGRREEYDVLDKRRGRDPEMGGKPRRKNPQEGLYNELQKDKMAEAYSEIGMKGERRRGKGHDGLYQGLSTATKDTYDALHMQALPPR", "binding result": "binds"}
{"binder": "anti-BCMA CAR of recombinant lentivirus LV 2 (SEQ ID NO: 237) (other, Chimeric antigen receptor on the surface of transduced cells; CD8α hinge and TM, CD137, CD3ζ) EIVLTQSPATLSLSPGERATLSCRASQSVSSYLAWYQQKPGQAPRLLIYDASNRATGIPARFSGSGSGTDFTLTISSLEPEDFAVYYCQQRFDYPITFGGGTKVEIKGGGGSGGGGSGGGGSGGGGSQITLKESGPTLVKPTQTLTLTCTFSGFSLSTSGVGVGWIRQPPGKALEWLALIYWNDDKRYSPSLKSRLTITKDTSKNQVVLTMTNMDPVDTAVYYCARDEYGGFDIWGQGTMVTVSSTTTPAPRPPTPAPTIASQPLSLRPEACRPAAGGAVHTRGLDFACDIYIWAPLAGTCGVLLLSLVITLYCKRGRKKLLYIFKQPFMRPVQTTQEEDGCSCRFPEEEEGGCELRVKFSRSADAPAYQQGQNQLYNELNLGRREEYDVLDKRRGRDPEMGGKPRRKNPQEGLYNELQKDKMAEAYSEIGMKGERRRGKGHDGLYQGLSTATKDTYDALHMQALPPR", "binding result": "binds"}
{"binder": "anti-BCMA CAR of recombinant lentivirus LV 8 (SEQ ID NO: 525) (other, Chimeric antigen receptor on the surface of transduced cells; CD8α hinge and TM, CD137, CD3ζ) DIQMTQSPSSLSASVGDRVTITCQASQDIANYLNWYQQKPGKAPKLLIYDASNLETGVPSRFSGSGSGTDFTFTISSLQPEDIATYYCQQHFNLPLTFGGGTKVEIKGGGGSGGGGSGGGGSGGGGSQITLKESGPTLVKPTQTLTLTCTFSGFSLSTSGVGVGWIRQPPGKALEWLALIYWNDEKRYSPSLKSRLTITKDTSKNQVVLTMTNMDPVDTAVYYCAREGSHDYKSSNWFDPWGQGTLVTVSSTTTPAPRPPTPAPTIASQPLSLRPEACRPAAGGAVHTRGLDFACDIYIWAPLAGTCGVLLLSLVITLYCKRGRKKLLYIFKQPFMRPVQTTQEEDGCSCRFPEEEEGGCELRVKFSRSADAPAYQQGQNQLYNELNLGRREEYDVLDKRRGRDPEMGGKPRRKNPQEGLYNELQKDKMAEAYSEIGMKGERRRGKGHDGLYQGLSTATKDTYDALHMQALPPR", "binding result": "binds"}
{"binder": "anti-BCMA CAR of recombinant lentivirus LV 10 (SEQ ID NO: 621) (other, Chimeric antigen receptor on the surface of transduced cells; CD8α hinge and TM, CD137, CD3ζ) EVQLLESGGGLVQPGGSLRLSCAASGFTFESEAMSWYRQAPGKERELVSVITSEGSTYYADSVKGRFTISRDNSKNTLYLQMNSLRAEDTAVYYCAHIEWETRLNWGQGTQVTVSSTTTPAPRPPTPAPTIASQPLSLRPEACRPAAGGAVHTRGLDFACDIYIWAPLAGTCGVLLLSLVITLYCKRGRKKLLYIFKQPFMRPVQTTQEEDGCSCRFPEEEEGGCELRVKFSRSADAPAYQQGQNQLYNELNLGRREEYDVLDKRRGRDPEMGGKPRRKNPQEGLYNELQKDKMAEAYSEIGMKGERRRGKGHDGLYQGLSTATKDTYDALHMQALPPR", "binding result": "binds"}
{"binder": "anti-BCMA CAR of recombinant lentivirus LV 18 (SEQ ID NO: 837) (other, Chimeric antigen receptor on the surface of transduced cells; CD8α hinge and TM, CD137, CD3ζ) EVQLLESGGGLVQPGGSLRLSCAASGFTFSSEGMSWVRQAPGKERELVSAISGSGDHTYYADSVRGRFTISRDNSKNTLYLQMNSLRAEDTAVYYCNALEGGPTTAIQPGGPDYWGQGTQVTVSSTTTPAPRPPTPAPTIASQPLSLRPEACRPAAGGAVHTRGLDFACDIYIWAPLAGTCGVLLLSLVITLYCKRGRKKLLYIFKQPFMRPVQTTQEEDGCSCRFPEEEEGGCELRVKFSRSADAPAYQQGQNQLYNELNLGRREEYDVLDKRRGRDPEMGGKPRRKNPQEGLYNELQKDKMAEAYSEIGMKGERRRGKGHDGLYQGLSTATKDTYDALHMQALPPR", "binding result": "binds"}
{"binder": "anti-BCMA CAR of recombinant lentivirus LV 15 (SEQ ID NO: 741) (other, Chimeric antigen receptor on the surface of transduced cells; CD8α hinge and TM, CD137, CD3ζ) EVQLLESGGGLVQPGGSLRLSCAASGFTFDSYTMSWYRQAPGKERELVSAISGHGDSTYYADSVKGRFTISRDNSKNTLYLQMNSLRAEDTAVYYCTRISITTEWLAGDYWGQGTQVTVSSTTTPAPRPPTPAPTIASQPLSLRPEACRPAAGGAVHTRGLDFACDIYIWAPLAGTCGVLLLSLVITLYCKRGRKKLLYIFKQPFMRPVQTTQEEDGCSCRFPEEEEGGCELRVKFSRSADAPAYQQGQNQLYNELNLGRREEYDVLDKRRGRDPEMGGKPRRKNPQEGLYNELQKDKMAEAYSEIGMKGERRRGKGHDGLYQGLSTATKDTYDALHMQALPPR", "binding result": "binds"}
{"binder": "anti-BCMA CAR of recombinant lentivirus LV 5 (SEQ ID NO: 357) (other, Chimeric antigen receptor on the surface of transduced cells; CD8α hinge and TM, CD137, CD3ζ) QVQLVESGGGLVKPGGSLRLSCAASGFTFSDYYMSWIRQAPGKGLEWVSYISSSGSTIYYADSVKGRFTISRDNAKNSLYLQMNSLRAEDTAVYYCARDQGNYGVDVWGQGTTVTVSSGGGGSGGGGSGGGGSGGGGSDIQMTQSPSTLSASVGDRVTITCRASQSISSWLAWYQQKPGKAPKLLIYEASSLESGVPSRFSGSGSGTEFTLTISSLQPDDFATYYCQQSDSHPITFGGGTKVEIKTTTPAPRPPTPAPTIASQPLSLRPEACRPAAGGAVHTRGLDFACDIYIWAPLAGTCGVLLLSLVITLYCKRGRKKLLYIFKQPFMRPVQTTQEEDGCSCRFPEEEEGGCELRVKFSRSADAPAYQQGQNQLYNELNLGRREEYDVLDKRRGRDPEMGGKPRRKNPQEGLYNELQKDKMAEAYSEIGMKGERRRGKGHDGLYQGLSTATKDTYDALHMQALPPR", "binding result": "binds"}
{"binder": "anti-BCMA CAR of recombinant lentivirus LV 3 (SEQ ID NO: 261) (other, Chimeric antigen receptor on the surface of transduced cells; CD8α hinge and TM, CD137, CD3ζ) QVQLVESGGGVVQPGRSLRLSCAASGFTFSSYGMHWVRQAPGKGLEWVAVISYEGSNKYYADSVKGRFTISRDNSKNTLYLQMNSLRAEDTAVYYCARELGDGMDVWGQGTTVTVSSGGGGSGGGGSGGGGSGGGGSEIVLTQSPATLSLSPGERATLSCRASQSVSSYLAWFQQKPGQAPRLLIYDASNRATGIPARFSGSGSGTDFTLTISSLEPEDFAVYYCQQRVDLWTFGGGTKVEIKTTTPAPRPPTPAPTIASQPLSLRPEACRPAAGGAVHTRGLDFACDIYIWAPLAGTCGVLLLSLVITLYCKRGRKKLLYIFKQPFMRPVQTTQEEDGCSCRFPEEEEGGCELRVKFSRSADAPAYQQGQNQLYNELNLGRREEYDVLDKRRGRDPEMGGKPRRKNPQEGLYNELQKDKMAEAYSEIGMKGERRRGKGHDGLYQGLSTATKDTYDALHMQALPPR", "binding result": "binds"}
{"binder": "anti-BCMA CAR of recombinant lentivirus LV 7 (SEQ ID NO: 477) (other, Chimeric antigen receptor on the surface of transduced cells; CD8α hinge and TM, CD137, CD3ζ) DIQMTQSPSSLSASVGDRVTITCRASQSISSYLNWYQQKPGKAPKLLIYAASSLQSGVPSRFSGSGSGTDFTLTISSLQPEDFATYYCQQAHSSPITFGGGTKVEIKGGGGSGGGGSGGGGSGGGGSEVQLLESGGGLVQPGGSLRLSCAASGFTFSNYAMSWVRQAPGKGLEWVSAISGSGGSTYYADSVKGRFTISRDNSKNTLYLQMNSLRAEDTAVYYCARPGDGYYEGVYFDYWGQGTLVTVSSTTTPAPRPPTPAPTIASQPLSLRPEACRPAAGGAVHTRGLDFACDIYIWAPLAGTCGVLLLSLVITLYCKRGRKKLLYIFKQPFMRPVQTTQEEDGCSCRFPEEEEGGCELRVKFSRSADAPAYQQGQNQLYNELNLGRREEYDVLDKRRGRDPEMGGKPRRKNPQEGLYNELQKDKMAEAYSEIGMKGERRRGKGHDGLYQGLSTATKDTYDALHMQALPPR", "binding result": "binds"}
{"binder": "anti-BCMA CAR of recombinant lentivirus LV 12 (SEQ ID NO: 669) (other, Chimeric antigen receptor on the surface of transduced cells; CD8α hinge and TM, CD137, CD3ζ) EVQLLESGGGLVQPGGSLRLSCAASGFTFEDYAMSWFRQAPGKEREGVSAISGKGGSTYYADSVKGRFTISRDNSKNTLYLQMNSLRAEDTAVYYCAVLDEEAGAEGGYWGQGTQVTVSSTTTPAPRPPTPAPTIASQPLSLRPEACRPAAGGAVHTRGLDFACDIYIWAPLAGTCGVLLLSLVITLYCKRGRKKLLYIFKQPFMRPVQTTQEEDGCSCRFPEEEEGGCELRVKFSRSADAPAYQQGQNQLYNELNLGRREEYDVLDKRRGRDPEMGGKPRRKNPQEGLYNELQKDKMAEAYSEIGMKGERRRGKGHDGLYQGLSTATKDTYDALHMQALPPR", "binding result": "binds"}
{"binder": "anti-BCMA CAR of recombinant lentivirus LV 13 (SEQ ID NO: 693) (other, Chimeric antigen receptor on the surface of transduced cells; CD8α hinge and TM, CD137, CD3ζ) EVQLLESGGGLVQPGGSLRLSCAASGFTFDRYAMSWFRQAPGKEREGVSAISTSGDSTYYADSVKGRFTISRDNSKNTLYLQMNSLRAEDTAVYYCAVLDEEAGAEGGYWGQGTQVTVSSTTTPAPRPPTPAPTIASQPLSLRPEACRPAAGGAVHTRGLDFACDIYIWAPLAGTCGVLLLSLVITLYCKRGRKKLLYIFKQPFMRPVQTTQEEDGCSCRFPEEEEGGCELRVKFSRSADAPAYQQGQNQLYNELNLGRREEYDVLDKRRGRDPEMGGKPRRKNPQEGLYNELQKDKMAEAYSEIGMKGERRRGKGHDGLYQGLSTATKDTYDALHMQALPPR", "binding result": "binds"}
{"binder": "anti-BCMA CAR of recombinant lentivirus LV 11 (SEQ ID NO: 645) (other, Chimeric antigen receptor on the surface of transduced cells; CD8α hinge and TM, CD137, CD3ζ) EVQLLESGGGLVQPGGSLRLSCAASGFTFDEYTMHWFRQAPGKEREFVSAISGGGSETYYADSVKGRFTISRDNSKNTLYLQMNSLRAEDTAVYYCAAGGEEAGVGYWGQGTQVTVSSTTTPAPRPPTPAPTIASQPLSLRPEACRPAAGGAVHTRGLDFACDIYIWAPLAGTCGVLLLSLVITLYCKRGRKKLLYIFKQPFMRPVQTTQEEDGCSCRFPEEEEGGCELRVKFSRSADAPAYQQGQNQLYNELNLGRREEYDVLDKRRGRDPEMGGKPRRKNPQEGLYNELQKDKMAEAYSEIGMKGERRRGKGHDGLYQGLSTATKDTYDALHMQALPPR", "binding result": "binds"}
{"binder": "anti-BCMA CAR of recombinant lentivirus LV 9 (SEQ ID NO: 597) (other, Chimeric antigen receptor on the surface of transduced cells; CD8α hinge and TM, CD137, CD3ζ) EVQLLESGGGLVQPGGSLRLSCAASGFTFGSEAMSWVRQAPGKERELVSAISGSGEVTYYADSVKGRFTISRDNSKNTLYLQMNSLRAEDTAVYYCQRLVEAKRHWGQGTQVTVSSTTTPAPRPPTPAPTIASQPLSLRPEACRPAAGGAVHTRGLDFACDIYIWAPLAGTCGVLLLSLVITLYCKRGRKKLLYIFKQPFMRPVQTTQEEDGCSCRFPEEEEGGCELRVKFSRSADAPAYQQGQNQLYNELNLGRREEYDVLDKRRGRDPEMGGKPRRKNPQEGLYNELQKDKMAEAYSEIGMKGERRRGKGHDGLYQGLSTATKDTYDALHMQALPPR", "binding result": "binds"}
